Source: patent publication US12473352 (SUN YAT SEN UNIVERSITY, dated 2025)

T1: human IFP35 protein (human, UniProt P80217 1-286, limits assumed)
T1 construct: also called interferon-induced protein 35; IFI35
T1 chain: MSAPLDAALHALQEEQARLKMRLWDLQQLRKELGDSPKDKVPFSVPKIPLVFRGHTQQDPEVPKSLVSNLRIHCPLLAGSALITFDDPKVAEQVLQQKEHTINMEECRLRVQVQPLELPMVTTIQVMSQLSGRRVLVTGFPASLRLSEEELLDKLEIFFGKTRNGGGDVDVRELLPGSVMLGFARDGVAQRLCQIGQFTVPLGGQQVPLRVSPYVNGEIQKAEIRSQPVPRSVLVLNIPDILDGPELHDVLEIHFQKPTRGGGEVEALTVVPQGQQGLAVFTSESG

B1: IFP35 NID (other)
chain: IQVMSQLSGRRVLVTGFPASLRLSEEELLDKLEIFFGKTRNGGGDVDVRELLPGSVMLGFARDGVAQRLCQIGQFTVPLGGQQVPLRVSPYVNGEIQ
notes: also called NID domain of IFP35 (a fragment consisting of amino acids at positions 124-220); antigen IFP35 NID

Assays:
human IFP35 protein [1] = molecular target: T1, human IFP35 protein; experiment: affinity kinetics (fortebio), antibody loaded
human IFP35 protein [2] = molecular target: T1, human IFP35 protein; experiment: ELISA (OD450) on human IFP35 protein
human IFP35 protein [3] = molecular target: T1, human IFP35 protein; experiment: ELISA (OD450) on antigen IFP35
human IFP35 protein [4] = molecular target: T1, human IFP35 protein; experiment: affinity kinetics (fortebio); upper end given to the clone said to show the best improvement
IFP35 NID = molecular target: B1; experiment: method not stated
[5] = molecular target: the molecule itself; experiment: crystal structure of IFP35 NID alone

Row | Binder | Kd (human IFP35 protein [1]) [nM] | koff (human IFP35 protein [1]) [s⁻¹] | kon (human IFP35 protein [1]) [M⁻¹ s⁻¹] | EC50 (read off the curve) (human IFP35 protein [2]) [µg/mL] | EC50 (read off the curve) (human IFP35 protein [3]) [µg/mL] | fold increase in affinity against AE001-H3+L3 (human IFP35 protein [4]) [fold] | Kd (IFP35 NID) [nM] | binding result [5]
1 | AE001-H3+L3 (antibody, V domains shown, The same doubt about the 'constant region' label applies as for AE001-H1+L1; also called AE001H3 + AE001L3; humanized antibody) VH: QVQLVQSGAEVKKPGASVKVSCKASGYTFTNYGMNWVRQAPGQGLEWMGWINTYTGEPTVAQKFQGRFTFTLDTSTSTAYLELSSLRNEDTAVYFCARYGYSWAMDYWGQGTSVTVSS VL: DIQMTQSPSSLSASVGDRVTITCQASSSVSYMHWYQQKPGKAPKRLIYDTSKLASGVPSRFSGSGSGTDYTLTISSLQPEDIATYYCQQWSSNPPITFGAGTKLEIK | 13.9 | 0.00201 | 145000 | ~0.2 | – | – | – | –
2 | AE001-6 (antibody, human IgG1, V domains shown, Human IgG1; CDR mutant of AE001-H3+L3; also called AE001-6Hc + Lc; AE001-6HC + LC) VH: QVQLVQSGAEVKKPGASVKVSCKASGYTFTNYGMNWVRQAPGQGLEWMGWINTYTGEPTVAQKFQGRFTFTLDTSTSTAYLELSSLRNEDTAVYFCARYGYSWAMDYWGQGTSVTVSS VL: DIQMTQSPSSLSASVGDRVTITCQASSSVSYMHWYQQKPGKAPKRLIYDTSKLASGVPSRFSGSGSGTDYTLTISSLQPEDIATYYCQQWSPYPPITFGAGTKLEIK | 3.35 | 0.000508 | 152000 | – | ~0.1 | – | – | –
3 | AE001-7 (antibody, human IgG1, V domains shown, Human IgG1; CDR mutant of AE001-H3+L3; also called AE001-6Hc + 7Lc; AE001-6HC + 7LC) VH: QVQLVQSGAEVKKPGASVKVSCKASGYTFTNYGMNWVRQAPGQGLEWMGWINTYTGEPTVAQKFQGRFTFTLDTSTSTAYLELSSLRNEDTAVYFCARYGYSWAMDYWGQGTSVTVSS VL: DIQMTQSPSSLSASVGDRVTITCQASSSVSYMHWYQQKPGKAPKRLIYDTSKLASGVPSRFSGSGSGTDYTLTISSLQPEDIATYYCQQWSSNSWSTFGAGTKLEIK | 3.46 | 0.000524 | 151000 | – | ~0.2 | – | – | –
4 | AE001-8 (antibody, human IgG1, V domains shown, Human IgG1; CDR mutant of AE001-H3+L3; also called AE001-6Hc + 8Lc; AE001-6HC + 8LC) VH: QVQLVQSGAEVKKPGASVKVSCKASGYTFTNYGMNWVRQAPGQGLEWMGWINTYTGEPTVAQKFQGRFTFTLDTSTSTAYLELSSLRNEDTAVYFCARYGYSWAMDYWGQGTSVTVSS VL: DIQMTQSPSSLSASVGDRVTITCQASSSVSYMHWYQQKPGKAPKRLIYDTSKLASGVPSRFSGSGSGTDYTLTISSLQPEDIATYYCQQWSPLPPITFGAGTKLEIK | 2.99 | 0.00044 | 147000 | – | ~0.2 | 2.5 to 4.6 | – | –
5 | AE001-9 (antibody, human IgG1, V domains shown, Human IgG1; CDR mutant of AE001-H3+L3; also called AE001-6Hc + 9Lc; AE001-6HC + 9LC) VH: QVQLVQSGAEVKKPGASVKVSCKASGYTFTNYGMNWVRQAPGQGLEWMGWINTYTGEPTVAQKFQGRFTFTLDTSTSTAYLELSSLRNEDTAVYFCARYGYSWAMDYWGQGTSVTVSS VL: DIQMTQSPSSLSASVGDRVTITCQASSSVSYMHWYQQKPGKAPKRLIYDTSKLASGVPSRFSGSGSGTDYTLTISSLQPEDIATYYCQQWSPRPPITFGAGTKLEIK | 3.04 | 0.000454 | 149000 | – | ~0.2 | – | – | –
6 | AE001-H2+L2 (antibody, V domains shown, Humanized form of 35NIDmAb with the same CDRs; The same doubt about the 'constant region' label applies as for AE001-H1+L1; also called AE001H2 + AE001L2; humanized antibody) VH: QVQLVQSGAEVKKPGASVKISCKASGYTFTNYGMNWVRQAPGQGLEWMGWINTYTGEPTFAQKFQGRFTFTLDTSTSTAYLEISSLRNEDTAVYFCARYGYSWAMDYWGQGTSVTVSS VL: DIQMTQSPSSLSASVGDRVTMTCQASSSVSYMHWYQQKPGKAPKRWIYDTSKLASGVPSRFSGSGSGTDYTLTISSMQPEDIATYYCQQWSSNPPITFGAGTKLEIK | – | – | – | ~0.08 | – | – | – | –
7 | 35NIDmAb (antibody, V domains shown, Mouse monoclonal antibody from hybridoma ascites; also called AE001-VH+VL; AE001-VH+VL (35NIDmAb)) VH: VQLVESGPELKKPGETVKISCKASGYTFTNYGMNWVKQAPGKGLKWMGWINTYTGEPTFADDFKGRFAFSLETSASTAYLQINNLKNEDTATYFCARYGYSWAMDYWGQGTSVTVSS VL: DIVMTQSPAIMSASPGEKVTMTCSASSSVSYMHWYQQKSGTSPKRWIYDTSKLASGVPARFSGSGSGTSYSLTISSMEAEDAATYYCQQWSSNPPITFGAGTKLEIK | – | – | – | ~0.06 | – | – | 28 | –
8 | AE001-H1+L1 (antibody, V domains shown, also called AE001H1 + AE001L1; humanized antibody) VH: QVQLVESGAEVKKPGASVKISCKASGYTFTNYGMNWVKQAPGQGLKWMGWINTYTGEPTFAQDFQGRFTFTLDTSASTAYLQISSLRNEDTAVYFCARYGYSWAMDYWGQGTSVTVSS VL: DIQMTQSPSSMSASVGDRVTMTCQASSSVSYMHWYQQKPGKSPKRWIYDTSKLASGVPSRFSGSGSGTDYTLTISSMQPEDIATYYCQQWSSNPPITFGAGTKLEIK | – | – | – | ~0.05 | – | – | – | –
9 | B1 | – | – | – | – | – | – | – | binds
